Assay [1] deals with FcγRI (human) (UniProt P12314). The assay is described as follows: SPR Biacore T100, FcγRI captured by pentaHis antibody, antibody as analyte 0-100 nM. A general note: Surface plasmon resonance follows binding to a sensor surface in real time, without labels.
Target sequence in this assay (P12314 16-288 limits assumed): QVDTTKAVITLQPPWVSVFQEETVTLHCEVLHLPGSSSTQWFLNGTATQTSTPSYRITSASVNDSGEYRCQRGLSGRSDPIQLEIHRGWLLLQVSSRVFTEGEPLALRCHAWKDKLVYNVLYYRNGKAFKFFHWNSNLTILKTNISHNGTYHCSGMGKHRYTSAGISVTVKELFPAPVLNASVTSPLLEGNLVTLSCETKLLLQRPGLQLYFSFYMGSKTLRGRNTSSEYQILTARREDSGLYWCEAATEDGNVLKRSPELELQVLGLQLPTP
Assay [2] has as its target FcγRI (human) (UniProt P12314). The assay is described as follows: SPR.
Target sequence in this assay (P12314 16-288): as the sequence (P12314 16-288 limits assumed) above
Assay [3] deals with FcγRIIA-R131 (human) (UniProt P12318). The assay is described as follows: SPR Biacore T100, antibody immobilised, receptor as analyte 0-12800 nM, steady state fit.
The target in assay [4] is FcγRIIIA-V158 (human) (UniProt P08637). Described as above.
FcγRIIIA-V158 (human), sequence (P08637 17-208 F176V limits assumed): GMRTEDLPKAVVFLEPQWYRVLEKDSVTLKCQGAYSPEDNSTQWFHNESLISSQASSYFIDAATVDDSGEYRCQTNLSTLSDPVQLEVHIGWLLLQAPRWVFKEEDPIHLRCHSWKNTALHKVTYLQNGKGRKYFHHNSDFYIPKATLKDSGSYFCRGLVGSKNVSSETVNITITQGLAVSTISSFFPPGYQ

FcγRIIA-R131 (human), sequence (P12318 36-218 H167R limits assumed): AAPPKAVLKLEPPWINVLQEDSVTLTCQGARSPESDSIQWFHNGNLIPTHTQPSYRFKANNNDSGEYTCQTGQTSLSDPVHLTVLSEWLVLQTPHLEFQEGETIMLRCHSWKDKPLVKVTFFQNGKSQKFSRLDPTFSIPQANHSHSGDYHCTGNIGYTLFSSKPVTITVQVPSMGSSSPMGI
IgG4 SPLE (antibody not named, Tables 2A and 2B), sequence (constant): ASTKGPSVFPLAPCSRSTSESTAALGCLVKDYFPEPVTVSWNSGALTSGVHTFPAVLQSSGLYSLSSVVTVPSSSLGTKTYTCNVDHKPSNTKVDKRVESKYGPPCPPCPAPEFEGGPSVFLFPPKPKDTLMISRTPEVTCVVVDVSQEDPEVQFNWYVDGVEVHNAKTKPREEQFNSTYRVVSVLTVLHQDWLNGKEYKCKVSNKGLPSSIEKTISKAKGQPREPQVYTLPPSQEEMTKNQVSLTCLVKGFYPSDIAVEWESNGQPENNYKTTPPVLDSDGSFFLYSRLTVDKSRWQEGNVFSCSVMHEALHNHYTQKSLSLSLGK

Take CD20 antibody GA101 IgG1 P329G: in assay [1], the dissociation constant Kd (in general, the free concentration of one partner at which half of the binding sites on the other are occupied at equilibrium, for simple one-to-one binding) turned out to be 0.0057 µM. Substance CD20 antibody GA101 IgG1 wildtype came in with a Kd in assay [1] of 0.0046 µM. With GA P329G, the dissociation constant Kd in assay [2] is 0.012 µM. Turning to “IgG4 SPLE (antibody not named, Tables 2A and 2B)”, in assay [3], the dissociation constant Kd stood at 10 µM. On to IgG4 Wt, for which, in assay [2], the Kd was found to be 0.014 µM. Take “WT IgG1 (antibody not named, Tables 2A and 2B)”: the Kd amounted to 2 µM in assay [3], 0.7 µM in assay [4] and 0.005 µM in assay [1].

The values are drawn from patent US20150239981A1.
